One molecule from patent publication US20200165308A1 (published 2020) can be followed below.

For orientation: Kd means the equilibrium constant for the complex coming apart. The low end stands for higher affinity, the high end for lower affinity.

The target of this assay is Netrin-1 (NET1) from Mus musculus lacking the C-terminal domain (NP_032770, aa: 24-457) (Mus musculus, UniProt O09118 24-457). The assay is described as follows: solid-phase binding assay.

B1: full-length ectodomain of NEO1 (AAH54540, aa: 41-1107) (receptor)
chain: GAAATKSGSPPQSAGASVRTFTPFYFLVEPVDTLSVRGSSVILNCSAYSEPSPNIEWKKDGTFLNLESDDRRQLLPDGSLFISNVVHSKHNKPDEGFYQCVATVDNLGTIVSRTAKLTVAGLPRFTSQPEPSSVYVGNSAILNCEVNADLVPFVRWEQNRQPLLLDDRIVKLPSGTLVISNATEGDGGLYRCIVESGGPPKFSDEAELKVLQDPEEIVDLVFLMRPSSMMKVTGQSAVLPCVVSGLPAPVVRWMKNEEVLDTESSGRLVLLAGGCLEISDVTEDDAGTYFCIADNGNKTVEAQAELTVQVPPGFLKQPANIYAHESMDIVFECEVTGKPTPTVKWVKNGDVVIPSDYFKIVKEHNLQVLGLVKSDEGFYQCIAENDVGNAQAGAQLIILEHDVAIPTLPPTSLTSATTDHLAPATTGPLPSAPRDVVASLVSTRFIKLTWRTPASDPHGDNLTYSVFYTKEGVARERVENTSQPGEMQVTIQNLMPATVYIFKVMAQNKHGSGESSAPLRVETQPEVQLPGPAPNIRAYATSPTSITVTWETPLSGNGEIQNYKLYYMEKGTDKEQDIDVSSHSYTINGLKKYTEYSFRVVAYNKHGPGVSTQDVAVRTLSDVPSAAPQNLSLEVRNSKSIVIHWQPPSSTTQNGQITGYKIRYRKASRKSDVTETLVTGTQLSQLIEGLDRGTEYNFRVAALTVNGTGPATDWLSAETFESDLDETRVPEVPSSLHVRPLVTSIVVSWTPPENQNIVVRGYAIGYGIGSPHAQTIKVDYKQRYYTIENLDPSSHYVITLKAFNNVGEGIPLYESAVTRPHTVPDPTPMMPPVGVQASILSHDTIRITWADNSLPKHQKITDSRYYTVRWKTNIPANTKYKNANATTLSYLVTGLKPNTLYEFSVMVTKGRRSSTWSMTAHGATFELVPTSPPKDVTVVSKEGKPRTIIVNWQPPSEANGKITGYIIYYSTDVNAEIHDWVIEPVVGNRLTHQIQELTLDTPYYFKIQARNSKGMGPMSEAVQFRTPKALGSAGKGSRLPDLGSDYKPPMSGSNSPHGSPTSPLDSN
For B1, the dissociation constant Kd is 7.58 nM.
